# Measured values taken from the RNAGym collection of RNA variant scans (doi:10.1073/pnas.2313332121).
# B1: TPR t1 (parent)
# chain: GACCAAUCUGCCCUCAGAGCUCGAGAACAUCUUCGGAUGCAGAGGAGGCAGGCUUCGGUGGCGCGAUAGCGCCAACGUCCUCAACCUCCAAUGCAUCCCACCACAUGAUGAUGCCUGAAGAGCCUUGGUUUUUUG
# Variants of: B1
# Assay: polymerase ribozyme fitness, log enrichment relative to wild type (log ratio); higher = more active; in vitro selection for triplet polymerase activity
# Method in brief: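 Mutant libraries of each subunit of a heterodimeric triplet polymerase ribozyme were built by PCR and transcribed. Each library went through one round of in vitro selection in triplicate: annealing with biotinylated primer, partner subunit and triplets, frozen incubation at −7 °C, gel excision of extended constructs, streptavidin-bead capture and RT-PCR. Input and output libraries were Illumina-sequenced; only genotypes with ≥10 input reads and ≥1 read per output were kept. Fitness is log2(genotype enrichment/wild-type enrichment), using inverse-variance-weighted replicate averages.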
row,Variant,polymerase ribozyme fitness (log ratio)
1,G44U G113C U130A,-2.45
2,G44U C70U A111C C124U,-2.44
3,A46U A74C U96A,-1.66
4,G45C G69C,-2.23
5,G45U C56U A121U,0.651
6,A46U A91C C115G,-3.55
7,A46U C64U C101U U132C,-1.55
8,G45U G48U A68C A74C A95G C97A C98U C104U G122U,-6.66
9,A46U C115A,-1.98
10,G44A G71A C73A,-2.85
11,A46U C73A C123G G127A,-0.933
12,A46U C56G U78C G93C G120U,-3.59
13,G44C C85U U92A C124U U133C,-1.63
14,G44C U55A C70U C88G G117C,-6.75
15,G44C C89U,-1.15
16,G44A C49U U78G C101A,-3.78
17,G45A C64G A68C C104A G117U,-6.22
18,G44A C76A C123G,0.122
19,G45U C53U A105U,-3.69
20,A46G C88U C97A,-5.17
21,A46G A95U A105U U109A,-6.27

row,Variant,polymerase ribozyme fitness (log ratio)
1,G44A A100C G110A,-4.23
2,A46U C73G G77U C101A C104U,-2.96
3,G45U C64U C79G C114U,-5.29
4,G44C G47U,-1.8
5,A46C G71U U87A C123U U132A,0.774
6,A46C U87A G110C,-3.24
7,G45A U59A A83C C114G G122C,-4.2
8,G45A A46C G58U G61U C85A,-4.13
9,G45U C62U U112G U126A G128A U130A,-3.11
10,G45U C70A C115A G128U,-3.65
11,G44U C80U,-1.59
12,G44A U87G U129G,-1.42
13,G45C G69A U87C U130C,-2.8
14,G45U G57U C73G U78A C94A A119G,-0.559
15,A46G G61A,0.179
16,G44A G52U U87A,-2.35
17,G45U U116G,-3.76
18,G45A G63C G110A,-1.54
19,G44U G69C,-0.825
20,G44A G48C A74U,-2.22
21,A46G G63C G110U U116A U130C,-4.2

row,Variant,polymerase ribozyme fitness (log ratio)
1,A46G G127A,-1.96
2,G45U C56A,-2.01
3,A46G A91C G93A,-3.21
4,G44U C114A U116G,-4.56
5,G45U A46U U106G,-3.7
6,G44A A105G,-4.47
7,G45A G69U A103C,-2.35
8,G45A C89U U133A,-1.52
9,A46U C114G,-3.78
10,G44A C98U C104U U116C,-4.16
11,G45A G63A A95G C101G U130C,-3.14
12,G44U G47U U55C,-2.82
13,G45C G60C U129A,-2.68
14,G45U C72G G93A,-2.7
15,G45A G61A G110U U125C,-0.661
16,G44C G63U,-1.98
17,G44C G113C,-3.05
18,G44C C70A U96A,-3.81
19,G45A U55C C70U G128A,-4.09
20,G44C U54A A105G G117U U129A U133A,-7.26
21,G44C U112C,0.766

row,Variant,polymerase ribozyme fitness (log ratio)
1,G44A G110A,-2.08
2,A46C G69U G135U,-0.586
3,G44C C49U C88A C124U,-1.53
4,A46C C72G,-2.19
5,A46U C62U A91U A103G U106A C114U U131G,-6.47
6,G45U G51A C94G,-5.45
7,A46U A100U,-1.69
8,G45U G61A C88U A90C G113A,-3
9,A46G C49A U112C,1.28
10,G44A C70U,-1.67
11,A46C G52U C88A G110A A118G U126C,-3.39
12,G44A C56U C72U,-2.35
13,A46U C64U U81G,-6.35
14,G45U C82U,-1.52
15,G44C G77U C86A,-4.13
16,G45A G60U C64U C94U A105U C124A G127A,-5.55
17,G44A G77C U78A G93A,-1.9
18,G44U A46U G117U,-4.65
19,A46C C49G C73U,-1.01
20,A46C C56U U78A A90G C94U A111C,0.0877
